Reference: a protein production outcome set (Wang et al. 2014)

Assay: label from the status in PepcDB records

Question: For “MLREAEVVVLGAGVAGLTLARLLWERGRKVLVVAEALGEASRPPVALVNPLRGRRFTLAEEGERALAAALAFYGRFVPLHLGVFRPVPEEDRPKVAGRLSRLKHRWEKEGVLLEEAFWLEPRPLLARLAEGLPLLRGRVLAWEPPWLVLEGGGRVRGEVLVYAGGGRGAHLLGLEGRHVPGLVLTLLDYFPRAVSYRVYLAGAALGGSYLPGEEGYRLPPPTEGEVEWLLQGAEALVGYRPRVASLWRGVRFRLSSFLFPVEGGFALTGFGSTGFLYAPLLAERLAERLLEHHHHHH”, which protein production is on record?
Answer: failed

Question: Which protein production does the source give for “MLRGCGKLKKNLPCSVHTETPIVLKTTARFLLGLSLVLLSSSVATAQVVLPRTLELNAKEMEQNGFVVAQEALQLAQFQQFEDALVRAKLAVQLAPRAHEIWALLGGLYLTVNQPKDAVPALEQSLKLNDKNPGAYFNLGSAHFRLGRYDAAARAIEQGLALKPNATEEWFNLGNAYLKLGQKDRAIEQYRRSLRLDRRFWPAYTNIGLVLYEQGHIRQAVKNWEQAADIDPKASEPKLALATALLQLGNEARALQLAEEALRLDSRYGTVEFQRENLWGDRLVADTQILLAKPPLRALMSQLQPEQSALPQP” here?
Answer: failed

Question: With “MLRIFIPTSNGKISRRRYIFSFILINFIFAFLIIFFNDGEAGFLVIVSTIVLHYLVINMNCQRLRDSGFIYIKTYVFGTLAVYIISIITMIAEDFACSGNGSMIFLICYFSTFSMLMLAPTDSSKQ” as the sequence, how does the protein production read?
Answer: failed

Question: With “MLRLYKTIGRFNLINFQEDYPMKILVVGTGAREHAICSALADEATIYSVMGNRNPGISRLAGNSLLLLKLTPKVVRFASEKGVDMAFIGPEAHLEAGLVDALEEAGIPSVGPTRDAARIETDKSFMRKLFEDYRIPGSITYRVFSDPEELREFMEDFDSEAVVKPVGLTGGKGVKIVGEHLRDNMEALKYATEVIEKRIGGHPSVVIEERVVGEEFTVQAFSDGEHIVPMPAVQDHPHAYEGDQGPITGGMGSYSDSDGLLPFLTQKDYEDAVEIMQRTVDAIRKETGPYRGILYGQFMLSADGPKLIEYNARFGDPEAMNVLPLLESSMLEICEGIVDGNLKSASFMNLATVCKYLVPEGYPESGVAGAEIKVDEKKIEDMGVITYYAAVNQEDDHIYTSSSRALALVAPADDIYSAEELCEEATAHVKGRLYHRRDIGTRELVEKRIKHMEDLRS” as the sequence, how does the protein production read?
Answer: failed

Question: Which protein production does the source give for “MLRNIIRFKGFGKGTSGGFLKPVSFRVQLTRCYRYDNGPSYRRFNNGEYSQKSSFKSILLDKSSRKYLALLFGGCSLFYYTHLDKAPVSDRSRFIWVSRPLELTIGNYTYKSIWRQTQQEILPPQHPLSIKIENIFMKIVEAAYKDPSVDNSLLDGIKWEIHVVNDPTASPNAFVLPGGKVFIFSSILPICANDDGIATVLAHEFAHQLARHTAENLSKAPIYSLLGLVLYTVTGAHAINNILLDGFLRMPASRQMETEADYIGLMIMSRACFQPQESIKVWERMANFEKQMNRGGVVNMEFLSTHPASTRRIENMSKWLPKANEIYEQSDCSSMGNYYKSFFSM” here?
Answer: failed

Question: With “MLRPRTIKEGSVGLFALLGLFIIGGIVLWLRGGAFGNPGYEVLVQFDDASGLQVGGAVRYRGVPVGRVAKLIPGSNGILAQLEISSTQLRIPADVQVEISRYGLLGEAAIDMIPDRQLSEAALAIDPLSADCAESDKILCDGDELEGQAGTQLTNSMARLAQAYSEPEFVADINATVKSANLAAARIAAMSAEITALSKTANQQVRGFERTSEAIAKAADNASLLTSRVDQVVQTNQGYINRTIEEASLLMVNLNQLVGENRAQFNLTLKSIETTNRDLQAIGQEIQTAVGTINHGLAAIDTQKVTNDLALLMENAAVTSNNIRQISNDLNDPTLMLTLQQTLDAARLTFENAQKITSDVEQLTGDPAFRNNLRKLVDGLGQLVSSTENLQDRVYTAHTLERSGQQLRFQLDHQQQLALYYEQWGVINPVPASGSPSPQIQTPKIKPPQPKENQGK” as the sequence, how does the protein production read?
Answer: failed

Question: For “MLRPSVSLAFASSLPQQSVASRAVQRSPLPRRASGHGATEARGMPSHCFIRFCCIVLLAITGCSPAAQSRYAPERNFSDPKALALALAAEQGDAEEVRRLMKVEGVNPDTIFSKDGYPLLFWPIFTHSPAGLKAMLDNGADPNVALPYQTLDRGVRNNPNAMVWAAEQDDPIYLKMLLDHGGNPNTRNANNESLLFHAFIKQNKWDNIKLLVERGADINAVAGMGNSITAAYAIRGGFDFVYWLLQHGADPTIEFAYGNPVHLKDSGIIEAIFWHPGNPKDPQWQRQCQQWLLKRGYERPPLPENYRSMRKAFHFPSEEKEIPLL”, which protein production is on record?
Answer: failed

Question: For “MLRRALEEAIAQALKEMGVPVRLKVARAPKDKPGDYGVPLFALAKELRKPPQAIAQELKDRLPLPEFVEEAVPVGGYLNFRLRTEALLREALRPKAPFPRRPGVVLVEHTSVNPNKELHVGHLRNIALGDAIARILAYAGREVLVLNYIDDTGRQAAETLFALRHYGLTWDGKEKYDHFAGRAYVRLHQDPEYERLQPAIEEVLHALERGELREEVNRILLAQMATMHALNARYDLLVWESDIVRAGLLQKALALLEQSPHVFRPREGKYAGALVMDASPVIPGLEDPFFVLLRSNGTATYYAKDIAFQFWKMGILEGLRFRPYENPYYPGLRTSAPEGEAYTPKAEETINVVDVRQSHPQALVRAALALAGYPALAEKAHHLAYETVLLEGRQMSGRKGLAVSVDEVLEEATRRARAIVEEKNPDHPDKEEAARMVALGAIRFSMVKTEPKKQIDFRYQEALSFEGDTGPYVQYAHARAHSILRKAGEWGAPDLSQATPYERALALDLLDFEEAVLEAAEERTPHVLAQYLLDLAASWNAYYNARENGQPATPVLTAPEGLRELRLSLVQSLQRTLATGLDLLGIPAPEVM”, which protein production is on record?
Answer: not failed

Question: With “MLRSLRLAALLGSLLMAVAASARDIDAASYGYPLTNPFEATIATTPPDKRPELPSDDEITQSDYSLNLRPEREFTLPDNFWAVKKLKYRLARQDHEAPLIFIIAGTGAPYSSSINEYLKKLFYQAGFHVVQLSSPTSYDFMSAASRFATPGISQEDAEDMYRVMQAVRAQHPRLPVSDFYLTGYSLGALDAAFVSHLDETRRSFNFKRVLLLNPPVNLYTSINNLDKLVQTQVKGIDRSTTFYELMLEKLTRYFQDKGYIDLNDALLYDFQQSRQHLSNEQMAMLIGTSFRFSAADIAFTSDLINRRGLIIPPKFPITEGSSLTPFFKRALQCDFDCYMTEQVIPMWRARTDGNSILQLVNQVSLYALEDYLRSSDKIAVMHNADDVILGPGDIGFLRKVFGERLTLYPHGGHCGNLNYRVNSDAMLEFFRG” as the sequence, how does the protein production read?
Answer: failed

Question: Which protein production does the source give for “MLRVTPILLAVLYAFAMYHFSAWRTRRELDARSTELADPALKRLTDRLAAALGVARVPVHIYEIDPVNGLAAPDGRIFITRGFYRKYQSGEVTGEELTSVIAHELGHVALGHSRRRMIDFSGQNAMRTALAMLLGRFIPFFGVWIANMLTTLLAARLSRADEYEADAYAAALLTKAGIGVAPQKALFHKLDALTEQRAGVAPAWLLSHPKTAERIAALDRLEARWQAH” here?
Answer: failed

Question: With “MLRYILLKIDIGKEGTDMAAIQAKNGPTEKLSLFLLTWPIFLEVFLFMLMGIADTFMLSALSDDAVSGVGAANQYLHIAILVLEVIGNGAAIVVSQYLGSKRFMEASKISALAVTLNLIVGLVISTGFLLFSKHMMLAMNLQGDVLTYAQNYLSIVGGAIFLQAIINSLAAIIRVHGFTKQAMFISLGMNMIHIAGNYVLIFGKFGFPELGVQGAAISSAVSRLIALIVFFWLLYRVMEYRVKLQYYFTLSKEYIGKILKIGIPSAFEQVMYQACQIVFLYYATYLGTESLAARQYATNISMFTYLFAIAIGMGTAIIIGRLVGGGEKDEAYERLWKSVKWAIGVTLCMVALVITFRTQLMGLFTDNPYIIGLGASVLLLSVLLETGRTMNIVIINSLRAAGDAKYPVLIGAFSMVLMSLPLGYFFAFHLDMGLVGIWLAIAIDEWTRAIIMFFRWKSRAWERYALVKPEEQEENVSVQVQ” as the sequence, how does the protein production read?
Answer: failed

Question: For “MLSFILSIFPIVLLIYLMVKRNALPSYVALPWVATLVMGVHLLHFNTDIVTISANVVSAIIAVQTPITVIFGAILFNRFSEISGATNIMRKWLGNINPNPVAQLMIIGWAFAFMIEGASGFGTPAAIAAPILVGLGFHPLKVAMLALIMNSVPVSFGAVGTPTWFGFGALKLSEDMILEIGSITAFIHSIAALIIPLLALRILVNWDDIRKNIVFIYISVLGCVVPYFLIAQVNYEFPSLVGGAIGLFISVWAANRNIGLAKVTNTLDNNAVSAGEVVKALFPTGLLIAFLIVTRIHQLPFKAMMNDATIWFSTTLGSLGLFEISKGLIFSLKNIFGSNVSSSYKLLYVPALIPFVITVLIAIPFFKISSSNVKQILVSSLQQSKNPFIALIGALVMVNLMLVGGEHSMVKIIGRTFAEISGSNWTIFSSFLGAIGSFFSGSNTVSNLTFGSVQLSTAETTGISVALVLALQSVGGAMGNMVCINNIVAVSSVLNISNQEGTIIKKTIIPMIIYGIIAALGALFLVPLFYNL”, which protein production is on record?
Answer: failed

Question: For “MLSGVGAPVGKQMLAGTEVAAMQINKAGGLLGREVELVIRDDKYNSSESVAVARELAGDGINLLLGGSQTVTALGLAPLAPELNMAVMIVAAAGMPVTHELFNPNIFRATANNYTQYSSLGRVLIEQNPDVRTWVSLAPDGDFGRDSALFFGKAVEKYAPGEKPTVLDTIYTQATATDFRTQINQLMSSDAEGLYIGIAASAQISFFQQARSVGLYDKFKAIGEVGNGDITGKAMGRNTHPNLWSVCHWIYNAEPFASNPVSKQLYEDYVTLKGDEMPSAQVAAGHRAAMAIFEGIRAAGSTETEAVLAAIEDVEFETVGGPVSFRKEDHQLVNTNYYSQMGPSREEPFFAFNKVVSIDAAEMIEPATPGKAFDISELPQLEHHHHHH”, which protein production is on record?
Answer: failed

Question: For “MLSKHYKLKFPGTLAMKGGYLFVFLAAVMWGTLGIFAKFLYGFNLSTYTIVFYRVLFALIFLAVYLKVRGLPLLMSKDRLPFYLGFSFFSIFLFYSLYFYTVKISSVSFAVLMLYTAPVYSLIFGRILFGEKLTPSKLTAVFLVILGVLLLNLDGKLNVSKLALLTGLASGLTYSLYGVFVKFAVRREEPERVLFNVLLIGLLFLLPVTDLRVPTAALPYLLGLAFFPTFLGYILYNTALKTVEVSKASIIATIEPVVAIILAYFIFGEALSLLQYLGASLIIAGAILAKR”, which protein production is on record?
Answer: failed

Question: For “MLSMIGLVGGLVLLIVLTLRGMNLFISAPLCAVIVALCSGVPLLTGDVNFVSAYMDGFASFVAAWFFMFLLGSMFGKFMEDTGAADSVARWIINKLGRKQAVLAVVLACAILTYGGVSVFVVAFSVYPMALSLFKDANLPRRFIPAALAFGSVTFTMTSAGSPEIQNWIPVKYLGTSPYAAWEVSLVVAVLMATFGYWWLRKIINRAIANGEKFEAREGDPILLERKLPSPISGLIPLLVVLGLSFTFHDTLQQNALIVALLGGVIAIAVINFKHFHKPQTAIHEATTGALVAIGNTAAVVGFGSIAKITPAFDAAVTAMTSLPGNELVGAAVAVSVIAGLTGSASGGQAIALPEVGPHYMAAGVNPEQLHRIVSISSGALDSLPHNGYVVTTIRAICNEKHSAAYWAVAAVTVVVPLMGLAVAIGLFML”, which protein production is on record?
Answer: failed

Question: Which protein production does the source give for “MLSMLALGSEKLMMGNNFPGSGVCFVYTDFGIPEYYRIIVLGLIALVGIKEMLLTSRKEDHFSIDSIDIGIFPLLICFVANFLFAGLEIIFTGLSP” here?
Answer: failed

Question: For “MLSQTLLEMTEQMIEVAEKGADRYQEGKNSNHSYDFFETIKPAVEENDELAARWAEGALELIKVRRPKYVHKEQIEAVKDNFLELVLQSYVHHIHKKRFKDITESVLYTLHAVKDEIAREDSRLEHHHHHH”, which protein production is on record?
Answer: not failed

Question: With “MLSRIDLYIKHRDIFLKHLELLHKLIEKVEDSSLNESELLNARLVDDMFPFNVQAKIATNFALRACCPLSGKEYKELEGDIDSFCGLKTYVVTAIDYINKLSEPTLEQLNLNVQDTAGFKEISMPASEYMSSFVLPNFFFHISMVYAIAKNNGVSVTKGDFDGIHQYPKGFSWEA” as the sequence, how does the protein production read?
Answer: not failed

Question: Which protein production does the source give for “MLSRILEKYRENGIQGIVLALISRFPGVRAVCVYYVYRLPFDKLVRKQLSVGNLKVVQVKSDSMGDLIRVQDKPDIFGERFQMGHYGFVAYVNNDPVAYLWGQEGPVHVERRFGFEVPIKDNQVFYYDSYTIPEWRKSGVGRALIQESIDFFKNGLGKSELIAIIETGNLVSQKTYERMGFVREAMHIHLDIIGKKINKQLARMVTQ” here?
Answer: failed
